The results in this text go back to PMC5680296, “Tsg101 chaperone function revealed by HIV-1 assembly inhibitors” (Nature Communications, 2017).

To fix the notation:
B2: Tsg101 UEV domain (residues 2–145) (domain or fragment, human)
chain: GAVSESQLKKMVSKYKYRDLTVRETVNVITLYKDLKPVLDSYVFNDGSSRELMNLTGTIPVPYRGNTYNIPICLWLLDTYPYNPPICFVKPTSSMTIKTGKHVDANGKIYLPYLHEWKHPQSDLLGLIQVMIVVFGDEPPVFSRP
notes: non-native glycine at the N-terminus (residue 1) left by TEV protease cleavage; Tsg101, ubiquitin E2 variant (UEV) domain, residues 2-145; the word human is printed for the full-length Tsg101 plasmids, not for this construct itself; also called Tsg101^2–145; 15N-Tsg101 UEV; not shown: His6, N-terminal, cleaved

Details in all cases: both partners purified
Assay [1] concerns the target T1, Tsg101 UEV-N16 complex (UEV domain with N16 covalently attached at C73) (human, UniProt Q99816 2-145, C73 covalently attached (disulfide linkage) to the activated sulfenamide form of N16 (tenatoprazole)).
T1 construct: non-native glycine at the N-terminus (residue 1) left by TEV protease cleavage; Tsg101, ubiquitin E2 variant (UEV) domain, residues 2-145, as m1; same polypeptide as m1; also called N16-Tsg101 UEV complex; Tsg101-N16; source: E. coli Rosetta 2 (DE3) pLysS, purified as m1, then incubated with N16 in a 10:1 ratio (N16 excess); not shown: His6, N-terminal, cleaved
T1 sequence: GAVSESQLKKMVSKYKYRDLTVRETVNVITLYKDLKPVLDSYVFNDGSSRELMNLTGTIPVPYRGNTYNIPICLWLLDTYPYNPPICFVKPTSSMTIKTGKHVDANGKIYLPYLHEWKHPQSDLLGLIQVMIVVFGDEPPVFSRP
The assay can be described thus: NMR titration; chemical shift perturbations of 15N-labelled Tsg101 UEV or UEV-N16 (200 μM) on addition of PTAP peptide at a final 1:1 ratio; 20 mM potassium phosphate, 50 mM NaCl, pH 5.8.

For assay [2], the target named is B2. Described as above.
The target in assay [3] is T2, wild-type ubiquitin (UniProt P0CG48 1-76).
T2 construct: ubiquitin, wild type, unlabeled, encoded in pET-21a; source: E. coli BL21-Gold(DE3), purified (acid precipitation, HiTrap SP ion exchange, S75 gel filtration)
The assay can be described thus: NMR titration; HSQC spectra of 15N-labelled Tsg101 UEV or UEV-N16 (200 μM) at 1:0, 1:0.5 and 1:1 ratio to unlabeled ubiquitin; 20 mM potassium phosphate, 50 mM NaCl, pH 5.8.

B1: PTAP peptide (Ace-NFLQSRPEPTAPPEE-CONH2) (peptide)
peptide: Ac-NFLQSRPEPTAPPEE-NH2
notes: also called Gag PTAP peptide; source: synthetic peptide (Bio-Synthesis, Texas)
As for B1, the binding result in assay [1] and in assay [2] was “binds” in each case.

As for B2, the binding result in assay [3] is recorded as “binds”.
